The text below walks through data of paper PMC5855701.

The target of assay [1] is GST-CA-Rac1 (constitutively-active Rac1 fused to GST) (UniProt P63000). As to the kind of experiment: pull-down; GST fusion (GST-RacWT, GST-CA-Rac1 or GST-alone) on glutathione-agarose beads; 550-1000 ug total lysate of HP cells, unstimulated or treated with TGFβ1 (10 ng/mL) up to 60 min; 2 h at 4 °C; three washes; immunoblot for Trio or CdGAP (LiCor). (Immunoblotting shows a protein as a band on a membrane.)

The target of assay [2] is GST-Rac1 (wild type Rac1 fused to GST) (UniProt P63000). Described as above.

Sequence of CdGAP (Q2M1Z3 whole entry): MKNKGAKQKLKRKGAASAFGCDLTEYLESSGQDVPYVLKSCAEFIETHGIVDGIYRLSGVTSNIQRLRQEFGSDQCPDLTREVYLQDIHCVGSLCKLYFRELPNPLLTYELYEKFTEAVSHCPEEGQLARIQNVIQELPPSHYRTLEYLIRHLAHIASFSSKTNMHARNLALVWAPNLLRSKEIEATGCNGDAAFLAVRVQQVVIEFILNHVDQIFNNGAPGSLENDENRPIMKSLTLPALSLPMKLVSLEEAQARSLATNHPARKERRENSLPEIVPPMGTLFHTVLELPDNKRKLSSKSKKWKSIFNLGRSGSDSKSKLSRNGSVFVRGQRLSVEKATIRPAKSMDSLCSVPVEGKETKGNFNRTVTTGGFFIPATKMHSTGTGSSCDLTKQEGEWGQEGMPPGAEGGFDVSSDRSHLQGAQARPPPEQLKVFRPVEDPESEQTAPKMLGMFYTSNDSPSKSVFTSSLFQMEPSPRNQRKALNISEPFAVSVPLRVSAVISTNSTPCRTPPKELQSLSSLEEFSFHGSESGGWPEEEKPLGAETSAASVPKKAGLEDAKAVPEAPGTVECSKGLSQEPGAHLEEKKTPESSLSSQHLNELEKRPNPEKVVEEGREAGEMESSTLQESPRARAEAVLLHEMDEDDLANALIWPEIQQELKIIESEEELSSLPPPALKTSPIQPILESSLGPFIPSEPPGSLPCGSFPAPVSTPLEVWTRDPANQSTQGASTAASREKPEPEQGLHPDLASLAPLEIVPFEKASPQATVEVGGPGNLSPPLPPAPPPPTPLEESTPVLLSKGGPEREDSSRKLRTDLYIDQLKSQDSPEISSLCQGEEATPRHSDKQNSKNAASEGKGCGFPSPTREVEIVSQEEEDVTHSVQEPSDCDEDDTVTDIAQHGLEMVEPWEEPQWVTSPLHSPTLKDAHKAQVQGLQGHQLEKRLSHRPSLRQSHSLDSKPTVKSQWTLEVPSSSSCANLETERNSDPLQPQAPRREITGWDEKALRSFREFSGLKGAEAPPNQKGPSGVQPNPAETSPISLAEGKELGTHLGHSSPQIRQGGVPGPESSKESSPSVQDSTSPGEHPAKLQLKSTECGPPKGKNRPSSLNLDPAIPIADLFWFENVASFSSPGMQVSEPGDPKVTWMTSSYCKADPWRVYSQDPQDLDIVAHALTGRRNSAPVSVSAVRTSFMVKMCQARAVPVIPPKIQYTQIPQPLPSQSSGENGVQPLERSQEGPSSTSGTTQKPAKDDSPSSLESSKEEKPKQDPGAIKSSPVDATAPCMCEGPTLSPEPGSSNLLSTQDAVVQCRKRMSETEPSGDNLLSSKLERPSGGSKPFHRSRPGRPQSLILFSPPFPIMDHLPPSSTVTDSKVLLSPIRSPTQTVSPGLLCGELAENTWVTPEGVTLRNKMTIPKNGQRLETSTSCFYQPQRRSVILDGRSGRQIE

In assay [1], “CdGAP (from UniProt Q2M1Z3 1-1444) (natural protein)” displayed a fold change of CdGAP pulled down by GST-CA-Rac1, 30 min TGFβ1 against 0 min of 1.55 fold; a fold change of CdGAP pulled down by GST-CA-Rac1, 45 min TGFβ1 against 0 min of 1.56 fold; a fold change of CdGAP pulled down by GST-CA-Rac1, 60 min TGFβ1 against 0 min of 1.53 fold.
Regarding “Trio, O75962 1-3097 (natural protein; other documents disagree on this pair)”, the fold change of Trio bound to GST-Rac1, 45 min TGFβ1 against unstimulated in assay [2] worked out at 1.82 fold.
